T1: CD123-Fc (Sino Biological) (human, UniProt P26951 19-305)
T1 construct: Bought reagent; not shown: Fc part of the bought fusion (detected with anti-human Fc HRP)
T1 sequence: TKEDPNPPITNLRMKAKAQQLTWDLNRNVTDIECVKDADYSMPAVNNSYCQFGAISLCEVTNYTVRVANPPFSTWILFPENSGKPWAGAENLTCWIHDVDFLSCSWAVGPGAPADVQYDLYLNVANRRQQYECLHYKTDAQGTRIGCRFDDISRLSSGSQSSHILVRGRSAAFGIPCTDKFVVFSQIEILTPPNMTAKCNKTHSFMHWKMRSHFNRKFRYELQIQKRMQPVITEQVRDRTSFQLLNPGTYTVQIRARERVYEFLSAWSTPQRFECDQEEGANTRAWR

B1: Adapter protein comprising the 8W9C D domain and P26(Q26-V229) AFP polypeptide (designed binder)
chain: MGSWDEFGRRLYAIEWRLYALGGSEAELAAFEKEIAAFESELQAYKGKGNPEVEKLREIAAVIRSNLQAYRHN
B2: Adapter protein comprising the 1F9I D domain and P26(Q26-V229) AFP polypeptide (designed binder)
chain: B1 chain with R17Q, L21Q, S24T, I59L, S65E
B3: 8W9C D domain as MBP fusion (designed binder)
chain: B1 chain
notes: Expressed in E. coli and assayed from leak-out supernatant; also called wild-type (8W9C); parental 8W9C; not shown: limits, linker and position relative to the D dom
B4: 1J1K D domain as MBP fusion (designed binder, not shown: large carriers; small tags and cut ends)
chain: B1 chain with G8S
notes: also called 8W9C (G8S)
B5: 5S5W D domain as MBP fusion (designed binder)
chain: MGSWSEFNMRLDAIYERLTALGGSEAELAAFEKEIAAFESELQAYKGKGNPEVEWLRHSAARIRLELQAYRHN
notes: not shown: limits, linker and position relative to the D dom
B6: 5B7L D domain as MBP fusion (designed binder)
chain: B5 chain with S5I, T19V, H58K, S59V, R62N
notes: as for B5
B7: 4H2H D domain as MBP fusion (designed binder, not shown: large carriers; small tags and cut ends)
chain: B1 chain with K48I, K55N
notes: also called 8W9C (K48I, K55N)
B8: 6Z5E D domain as MBP fusion (designed binder, not shown: large carriers; small tags and cut ends)
chain: B1 chain with N50S
notes: also called 8W9C (N50S)

Where a chain is given by its changes, count along the chain named. Names and notes keep the numbering of the source.

The target in one assay is T1, CD123-Fc (Sino Biological). Put plainly: BLI (Octet RED386): CD123-Fc captured on AHC sensor, Adapter in solution 500-0.69 nM, 25 C, global 1:1 fit.
Usually Kd stands for the equilibrium constant for the complex coming apart. A high value points to a looser complex. As usually defined, the koff is the first-order rate constant of dissociation. The kon is the rate constant with which the complex forms. High values mean fast association, low ones slow association. Turning to B1, the affinity, expressed as Kd, was 5.2 nM; the off-rate constant (koff) was 0.000924 s⁻¹; the association rate constant (kon) was determined as 177000 M⁻¹ s⁻¹.

On to B2, for which binding was characterised by a dissociation constant (Kd) of 7.6 nM, the koff was found to be 0.000646 s⁻¹ and the kon was determined as 85200 M⁻¹ s⁻¹.

The target in a further assay is T1, CD123-Fc (Sino Biological). Put plainly: ELISA, serial dilution of MBP fusion normalized for protein concentration; readout CD123-Fc Binding (A450). Background: ELISA stands for enzyme-linked immunosorbent assay.
Broadly, the EC50 is the concentration giving half of the maximal effect. A lower EC50 goes with higher potency in that assay. Turning to B3, a half-maximal effect (EC50) was put at 7.47 ng/mL.

Molecule B4 had a half-maximal effective concentration (EC50) of 3.69 ng/mL.

Molecule B5 had an EC50 of 68.7 ng/mL.

In turn, B6 yielded an EC50 of 5.12 ng/mL.

Another assay has as its target T1, CD123-Fc (Sino Biological). Described as above. The source holds these as a separate data set.
Regarding B3, the EC50 is 6.97 ng/mL.

As for B7, the 50% effective concentration (EC50) was found to be 5.4 ng/mL.

Turning to B8, the response was half-maximal at 3.26 ng/mL (EC50).

The molecule B5 displayed an EC50 of 57.9 ng/mL.

In turn, B6 registered a concentration giving a half-maximal response (EC50) of 3.72 ng/mL. This EC50 is about 16-fold lower than that of the molecule before.

Source of the values: patent US20230250185A1 (ARCELLX, published 2023).
